This data set deals with the molecule itself. The experiment in a line: SEC. On the technique in general: SEC sorts molecules by how far they enter the pores of the column.

B1: recombinant full-length Candida albicans Ssa2 protein (natural protein)
chain: not shown
On to B1, for which the binding result is “binds”.
